Source: the DeepSol protein solubility set

Assay: soluble on expression in E. coli; label from the status in PepcDB or PDB records

Sequence | soluble on expression in E. coli
MSSQSSSADGKVTLKFFHRWPKEPEKSYFEEVVKEFEKDHPDIDIQIEAVLNDSYKDKIKVMLGTTSPPDIYFSWSDEFAFKFIRGNKALDLSSYYKNDTDWSSQLVQSQITPFTYENKQYGVPWQMDAKSFFYNKDIFQKLNLDPPKTWDELIDVSKKLKEHGYTPISFGTKATWTISHYIGTLNQRMVDEKTREKDYNAKTGEFTDEGYVKALEKLQELMPYFNKHVNSVDHEYVRQQFKSGKSAMIYAETAEIKLVEPVNLGMFPFPEISGQKGSSEALTGAPEGFMISSRTKHPKEAMEFLQFLTSKRMGEKLVKDVGKYSAVQGTATEENATAIQREAVQHIVDAKSMVPWFDMDVDVEVADAYLTGVQQMLGGDMTPQQVMKAVQKAAKQVRASAELEHHHHHH | soluble
MSSRTANSSSRNDESLRTGQHKENPNYWGFANFPNQVFRRAVKNGFDFTLMVVGRSGLGKSTFINTLFLAEINNLNEKESAPTHPHPSTVRVEEKLVKLVENSVSLNLTLVDTPGFGDAVNNSKCWEPIVNYVESKFFEQFCEETRIDRGEKIVDKCVHLCLYFIEPSGHGLKPIDIELMKHLHGRVNIVPVISKADCLTRDELLRFKKQIVKDAETAEIKLYKFPELEDPYTDKVAIEKLRKALPFAIIGSNMLKEKDGKKIRYREYPWGTVEVENMQHNDFLTLRDMIIRTNLIDMIDVTRNVHYENFRFRQMEGLPKNEKNRDPFTHLEEERRQKEQDLDEKRNTLEKVFTEKTSARKKRSDERMSALEELEQQNKQKIDAKRAEIIRLRHEISELKNGNLTSSQTSLAMYNENNHSQNSTLNSTTKSSPPPTSATSSSSGTMKKRMGGLGLFNRN | not soluble
MSSSANSIKVVARFRPQNRVEIESGGQPIVTFQGPDTCTVDSKEAQGSFTFDRVFDMSCKQSDIFDFSIKPTVDDILNGYNGTVFAYGQTGAGKSYTMMGTSIDDPDGRGVIPRIVEQIFTSILSSAANIEYTVRVSYMEIYMERIRDLLAPQNDNLPVHEEKNRGVYVKGLLEIYVSSVQEVYEVMRRGGNARAVAATNMNQESSRSHSIFVITITQKNVETGSAKSGQLFLVDLAGSEKVGKTGASGQTLEEAKKINKSLSALGMVINALTDGKSSHVPYRDSKLTRILQESLGGNSRTTLIINCSPSSYNDAETLSTLRFGMRAKSIKNKAKVNAELSPAELKQMLAKAKTQ | soluble
MSSSDHIHVPDGLAESYSRSGGEEGRAWIAGLPALVARCVDRWELKRDGGVRSGEASLVVPVLRADGTRAALKLQMPREETTAALIGLRAWGGDGMVRLLDHDEESSTMLLERLDGSRTLASVEDDDEAMGVLAGLLNRLHSVPAPPGLRGLGEIAGAMVEEVPSAVDSLADPEDRSRLRGWASAVAELVGEPGDRVLHWDLHYENVLAAEREPWLAIDPEPLVGDPGFDLWPALDTGWERIEATGDARRVVRRRFDLLTEALELDRGRAAGWTLARLLQNTLWDIEDGLTAIAPSQIAVAEALAKP | not soluble
MSSSLFAPTIETIDYPFPPKPVPLSDAQKADYKARIKQLLIEKDAVLVAHYYTDPEIQALAEETGGCVSDSLEMARFGRDHPAKTLIVAGVKFMGETAKILSPEKTILMPTLEATCSLDLGCPIDKFSAFCDAHPDHTVVVYANTSAAVKARADWVVTSSIALEIVEHLDSEGKKIIWGPDRHLGSYIAKQTGAEMLMWQGDCIVHDEFKANALRDLKSVYPDAAILVHPESPASVVAMADAVGSTSQLIKAAQTMPNERFIVATDRGIFYKMQQAAPGKTLIEAPTGGNGATCKSCAHCPWMAMNGLKAIEASLSNSDKTTHEIFVDEDLRVKALIPLTRMLDFAKTLNMKVKGNALEHHHHHH | not soluble
MSSSREENVYLAKLAEQAERYEEMVEFMEKVAKTVDTDELTVEERNLLSVAYKNVIGARRASWRIISSIEQKEESRGNDDHVSIIKDYRGKIETELSKICDGILNLLDSHLVPTASLAESKVFYLKMKGDYHRYLAEFKTGAERKEAAESTLVAYKSAQDIALADLAPTHPIRLGLALNFSVFYYEILNSPDRACSLAKQAFDEAISELDTLGEESYKDSTLIMQLLRDNLTLWNSDINDEAGGDEIKEASKHEPEEGKPAETGQ | soluble
MSSTAGGEVSINSGDLLLGTLSTSITKLEQQIRATQLSQKKLNSDCETMAEYLRDLSEYKQPVDLLPYVGKLNDSTIRVNNTHQKLDDLLERLTKLQRQIARETYKKKNSIKEQEPPVQPEN | not soluble
MSSVPRFWRNLGSRYNLEGTRCKECGEYFYPPRNVCVNCRRMGELEPFKFKGTGEIVSYTLIHTGAEGFEGQAPYTLAIIKLDEGPRLTSQVVGNTDNIQIGTRVRSVFRKLGEDGERGMIYYGTKFVPVDALEHHHHHH | soluble
MSTAEQIATLENRINELELENKRLHETVAYLTRKLYGRSSEKTSALSVGQVSLFDEAEVYAVPQAPEPDLKEVQGYIRRKYKGQRTDLLKDIPHDKRLCTLAEEDRYCEACGTDLVSVGKEFIRTEIEFIPAKIRVIDYYRETFECRTCRKNGEPYMEKSPMPYPVIQHSMASPSTVAWIMHQKFVNHLPLYRQENEWKMLGVNLKRETMSNWILAAARDWLMPLVDLMHKKLLQEKYLHADETTVQVLNEEGRSNTTNSYMWVYSSGKYCKKQIRLFQYQPGRNGKYPQEFLKGFSGFLHTDAYSGYKKVPEITRCMCWTHLRRYFRDALPKDTQSPEATIPSQGIRFCNKLFEIEETLEKLTQEQRRLERLKQETPVLEAFWSWVDSVKDKVLPKSKIGEAIQYALNNKEDFMNYLLDGNCSISNNLSENSIRPFTLGRKNWLFSGSPRGADASAAVYSIVESAKANDINPYKYLYYIFSELPGVQFGQNPEFLEDYLPWSPDVQAACK | soluble
MSTDIDCIVIGAGVVGLAIARALAAGGHEVLVAEAAEGIGTGTSSRNSEVIHAGIYYPADSLKARLCVRGKHLLYEYCAARGVPHQRLGKLIVATSDAEASQLDSIARRAGANGVDDLQHIDGAAARRLEPALHCTAALVSPSTGIVDSHALMLAYQGDAENDGAQLVFHTPLIAGRVRPEGGFELDFGGAEPMTLSCRVLINAAGLHAPGLARRIEGIPQDSIPPEYLCKGSYFTLAGRAPFSRLIYPVPQHAGLGVHLTLELGGQAKFGPDTEWITTEDYTLDPRRADVFYAAVRSYWPALPDGALAPGYTGIRPKISGPHEPAADFAIAGPASHGVAGLVNLYGIKSPGLTASLAIAEETLARLAALEHHHHHH | not soluble
MSTENTLSVADLARENVRNLVPYQSARRLGGNGDVWLNANEFPTAVEFQLTQQTLNRYPECQPKAVIENYAQYAGVKPEQVLVSRGADEGIELVIRAFCEPGKDAILYCPPTYGMYSVSAETIGVERRTVPALENWQLDLQGISDNLDGTKVVFVCSPNNPTGQLINPQDLRTLLELTRGKAIVVADEAYIEFCPQATLTGWLVEYPHLVILRTLSKAFALAGLRCGFTLANEEVINLLLKVIAPYPLSTPVADIAAQALCPQGINAMRDRVAQTVQERQYLVNALQQTACVEHVFDSETNYILARFTASSSVFKSLWDQGIILRDQNKQPSLSGCLRITVGTRQENQRVIDALRAEPV | not soluble
MSTETIEIFNNSDEWANQLKHALSKGENLALLHGLTPDILDRIYAYAFDYHEKGNITDAEIYYKFLCIYAFENHEYLKDFASVCQPKKKYQQAYDLYKLSYNYFPYDDYSVIYRMGQCQIGAKNIDNAMQCFYHIINNCEDDSVKSKAQAYIELLNDNSEDNGLEHHHHHH | not soluble
MSTFIRGPICGTDNCPSRLWRIIDGRRTCQYGHVMEGDVEFNDDEDDLNGLGAGVITRRLNLTTNATGSFQSSQLTNSQLLQQQQRQSHKKFKKLIGHEAKLLFLKSFQFILKRQIRWLITEMRFPKEFEHVAKIIWLKILKTINDQPQEELKLQLHMTSTISILYLASTHLSLPVYTCDYIKWICTAKMPYFQASEILPKSWRIQLPNYYVSILEGSISPFNGQLYNKIALTCGMIHFKEFFNSEISCQGLLLKLVMQCALPPEFYFYTKQVIEFEETDIRNLTLWERTDERHTGRVSNHAELRVLSYFMLTINWMLSFDRDRQYPLKWILSLTESLTQRTTTSESIGRNIVKVVYPDKPTSSDYFQWSEEETLEFLKWMEKQFLPTQTKSLHNENGSMEMTIDQKIARRKLYKIFPLDREANHDGEFNDSTHQLTFIEDLQERYAKQTPFFESNKIRDSLNYQEANPPARKEAIGRLLTHIASQLLVDFAISKEQLKDCISRIKNACLHRMN | not soluble
MSTHLQGSLFDQTDELGLGPLDGLRRTVLGAGAWIDLLPGWLSGADALFERLAADVPWRAERRKMYDQTVDVPRLLAYYRAGDTLPHPVLAEARDALSAHYVAELGEPFTTAGLCYYRDGRDSVAWHGDRIGRGAREDTMVAILSVGAPRDLALRPRGGGDVLRRPLGHGDLIVMGGSCQRTWEHAIPKSTRAAGPRISIQFRPSGVNLEHHHHHH | soluble
MSTLELHHIGKSYQSVMVLDRIDLHVPPGSRTAIVGPSGSGKTTLLRIIAGFETPDAGKVILQGKAMFDGTTYVPAHKRGIGFVPQDGALFPHFTVAGNIGYGLKGSQRDKERRINELMDMVALDRRLSALWPHEISGGQQQRVALARALAQRPVLMLLDEPFSALDTALRASTRKAVAELLSEANIASILVTHDQTEALSFADQVAVMRAGKLAHVGPPQELYLRPVDEPTATFLGETLMLTAQLGTGLAHCALGQVKVDNPHRRGEARIMLRPEQITLTPLRPEQYNAASCLAKVIAIDFAGFISTLTLQIISSGETIEIKTISREDLHVGLTVGLDIMGQAHIFAE | not soluble
MSTQEVNITLTDFINQLDSNAEQVSFEQVMKVISENYNYLPATFNNGDLFNEAGTNEGSCKIFYFAKLNNLSEQQTLACFGRFYREDVVNNPQGNDHGNIRNFMQSGWSKVEFNSVALTPLT | not soluble
MSTQVQDRIHDRRELTAVLLRALEQRHEVLDAIVDSEDHAEALTTVAGLLDTSEAYAEAVLNLTFRRLTKVERLRIQTELKDLDATLEWTSTDRPASTGRNFRLRPFTDTEEDAELFRRRCGEQVDDAGAQWSEDRVEKERTEGLSRVDDESAAWFVCEDTAENTAVGMVFGELSGREVDVAIWIAPDARKKGYGTAAVKHSRQELAAEFPGTVLVVR | not soluble
MSTTDDTHNTLSTGKCPFHQGGHDRSAGAGTASRDWWPNQLRVDLLNQHSNRSNPLGEDFDYRKEFSKLDYSALKGDLKALLTDSQPWWPADWGSYVGLFIRMAWHGAGTYRSIDGRGGAGRGQQRFAPLNSWPDNVSLDKARRLLWPIKQKYGQKISWADLFILAGNVALENSGFRTFGFGAGREDVWEPDLDVNWGDEKAWLTHRHPEALAKAPLGATEMGLIYVNPEGPDHSGEPLSAAAAIRATFGNMGMNDEETVALIAGGHTLGKTHGAAAASHVGADPEAAPIEAQGLGWASSYGSGVGADAITSGLEVVWTQTPTQWSNYFFENLFKYEWVQTRSPAGAIQFEAVDAPDIIPDPFDPSKKRKPTMLVTDLTLRFDPEFEKISRRFLNDPQAFNEAFARAWFKLTHRDMGPKARYIGPEVPKEDLIWQDPLPQPLYQPTQEDIINLKAAIAASGLSISEMVSVAWASASTFRGGDKRGGANGARLALAPQRDWDVNAVAARVLPVLEEIQKTTNKASLADIIVLAGVVGIEQAAAAAGVSISVPFAPGRVDARQDQTDIEMFSLLEPIADGFRNYRARLDVSTTESLLIDKAQQLTLTAPEMTVLVGGMRVLGTNFDGSQNGVFTDRPGVLSTDFFANLLDMRYEWKPTDDANELFEGRDRLTGEVKYTATRADLVFGSNSVLRALAEVYACSDAHEKFVKDFVAAWVKVMNLDRFDLQ | not soluble
MSTTFPLHTESFMLLDSGCLTNSDYFLPFALTDVLTTFSGMQHQPIIHFWQLDQAMILGMKDTRVPHLKEGIASLQENDYSVVVRNAGGLGVIADSGILNVSLILPNNSEHKLSIDAAYELMWAWLRQSFPEKEIDAFEITTSYCPGTYDLSIGGQKFAGIAQRRVKDGISVMIYISVNGNQLARGEVVRDFYLAGLQEQFGENGYPPVDPAVMANLETLIETPLTIDAVKTRLIEALPQQFEKSIDPNLTEPIITSEWFQTNLTVQLEKMAQRNALIKGEIL | not soluble
